Results from the RNAGym collection of RNA variant scans (doi:10.1073/pnas.2313332121).

B1: TPR t1 (parent)
chain: GACCAAUCUGCCCUCAGAGCUCGAGAACAUCUUCGGAUGCAGAGGAGGCAGGCUUCGGUGGCGCGAUAGCGCCAACGUCCUCAACCUCCAAUGCAUCCCACCACAUGAUGAUGCCUGAAGAGCCUUGGUUUUUUG

Variants of: B1
Experiment: polymerase ribozyme fitness, log enrichment relative to wild type (log ratio); higher = more active; in vitro selection for triplet polymerase activity
Procedure, shortened: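 One round of in vitro selection, in triplicate, was applied to PCR-built, transcribed mutant libraries of each subunit of a heterodimeric triplet polymerase ribozyme. The steps were annealing with a biotinylated primer, partner subunit and triplets, incubation frozen at −7 °C, gel excision of extended constructs, streptavidin-bead capture and RT-PCR. Fitness is the logarithm, base 2, of genotype enrichment over wild-type enrichment from inverse-variance-weighted replicate averages of Illumina-sequenced inputs and outputs, keeping genotypes with ≥10 input reads and ≥1 read per output.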

Row | Variant | polymerase ribozyme fitness (log ratio)
1 | C22A A95U | -4.83
2 | C20A A46C U78C A111C C114A | -3.99
3 | U21G A50U G69A A108G G110A U112G | -6.33
4 | G19U G61C | -4.85
5 | U21C G39C C56A | -1.44
6 | U21A G63A | -1.05
7 | C22G A43U U106A C115A | -1.37
8 | C20U C114U | -1.66
9 | C20G G44U C56A A68G C98A C114U | -6.77
10 | U21C C56U A84C C98A | -4.77
11 | C20U U96A | -2.25
12 | C20A G42U G60A | -3.62
13 | C22A A83G | -5.4
14 | C20G C56U C72U | -3.6
15 | C20U G63U | -2.43
16 | C20U A46C G69C C101U | -4.11
17 | C20U C70U | -1.7
18 | C20U G39A C56A G69U C94G | -1.55
19 | C20G C40A G58C A121U | -4.66
20 | C22G C34A G52C | -4.14
21 | U21A G42A A46U G60A G120A | -2.58

Row | Variant | polymerase ribozyme fitness (log ratio)
22 | C22A G57C C86U | -4.83
23 | C20G G122A | -4
24 | C22G A29C G61U G63C C97A C124A | -6.38
25 | C20U C73A U81A U96A A121U C124U U134A G135U | -0.843
26 | G19U U96G C114A | 1.12
27 | C22A A46C | -5.4
28 | U21C G110U G113U | -4.79
29 | C22A C72A C73A | -5.32
30 | U21A U59A C62A | -3.07
31 | U21G C102A | -2.91
32 | C20G C40A C70U U92A G93A G113C | -6.62
33 | C20U C53U U54A U125G | -2.55
34 | C20U G52C | -2.19
35 | C20A C73A | -2.14
36 | U21G A50U | -2.82
37 | C20G C56A | -4.28
38 | U21A C72A | -0.312
39 | U21G C22U U92G C104A U109A | -5.96
40 | C22G C82U | -3.57
41 | U21G A27U G60U C80A C123G | -6.74
42 | C20A C31G G39U A46U G47A A100C A108U U125A | -6.51

Row | Variant | polymerase ribozyme fitness (log ratio)
43 | C20G U125G | -4.91
44 | C20U U132C | -1.93
45 | C22A A91G | -4.94
46 | C22G C64U | -2.83
47 | C20A G77U | -3.11
48 | C20A G77A | -3.54
49 | C20G G36A A43C U96G G117C | -5.42
50 | C22A C73G C82A G120U U125C | -5.37
51 | C20A G51A G61C | -6.95
52 | C22A A29G C40G G61U C72A A83U U131A | -5.02
53 | U21C C89A | -1.81
54 | C20A C70U G93A G113C U132C | -7.65
55 | U21A C49A G63U | -2.05
56 | C20U G77A | -1.35
57 | C20G U30G C114G G117U C124G | -7.61
58 | C20A U87G A100G C102A A119G | -5.22
59 | U21A C86G | -0.987
60 | C20G C72U | -4.16
61 | C20A G42A G57U A100C | -6.04
62 | C22G C72U U96C C114G C123U G127U | -7.69
63 | U21C C62U A84C | -0.909

Row | Variant | polymerase ribozyme fitness (log ratio)
64 | U21A G45U C101U U106C | -4.17
65 | C20G C115G | -4.85
66 | C20G C115A | -3.94
67 | U21A A27C A46G C76G | -2.54
68 | U21G G45U U92G | -5.73
69 | C20A G44U G69A C86A C123G | -6.49
70 | C20A A91G U109G | -4.02
71 | U21C C28A G63A U92G C124A G127A | -7.31
72 | C20A A46C C62U C86U | -3.97
73 | C22G C64U C115U A121U | -2.57
74 | C22G A50U U96C A119G | -3.9
75 | C20U A43U C114G C123A | -2.41
76 | C20U U32C G71A U112C | -1.25
77 | C20U A41C C72A C101G | -3.66
78 | C20G A91G C101A G117C | -4.92
79 | C20U C40A G63U C123U | -3.75
80 | C22G C70U | -3.87
81 | C20A C62G G63U C114A G120A | -6.07
82 | C20G C115U G117C | -4.63
83 | U21C G48C A90U G117C G127C | -5.55
